This is an account of results in the supplement of paper PMC12764529.

Series [1] is described as follows: folding stability dG unfold from trypsin proteolysis; higher = more stable. A digest of the protocol:
(§1)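 K50 was inferred by Bayesian fitting of sequencing counts obtained after protease digestion of designed mini-proteins. Unfolding free energy was derived by comparison with a sequence-predicted unfolded-state K50 and a shared folded-state K50, for each protease or both combined. The mini-proteins were under 80 residues, had no cysteine, were carried in a PA-tagged cDNA display construct, and were kept only if AlphaFold2 dimer inter-PAE exceeded 15.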

Series [2] in a line: folding stability dG unfold from chymotrypsin proteolysis; higher = more stable. The method, boiled down:
as §1

Series [3] can be described thus: folding stability dG unfold (combined trypsin and chymotrypsin); higher = more stable. The method, boiled down: as §1

± gives the half width of the 95% confidence interval.

Consider “SAGGSAGGSAGTAEEIAKALEEAGFKVEKLPDGTLKVTVRNPETEETVEITLTLEEIEKLSAGGSAGGSAGG [r11_994_TrROS_Hall]”, for which the entries for the “folding stability dG unfold” value in series [1], in series [2] and in series [3] were 2.38 ± 0.084 kcal/mol, 2.22 ± 0.051 kcal/mol and 2.33 ± 0.1 kcal/mol, respectively.

“SAGGSAGGSAGTIRIKMKDGKPMEFPLKGLPKEDLDDPEFLDWIKDWARDSGMKIDDIEISAGGSAGGSAGG [r11_467_TrROS]”: the “folding stability dG unfold” value in series [1] was -0.62 ± 0.22 kcal/mol; in series [2], 1.09 ± 0.072 kcal/mol; in series [3], 0.608 ± 0.14 kcal/mol.

“SAGGSAGGSAGTITTPTAEFTVTLDPNGTYTVTYQNTTTTVPVGAPFTLPGGEPLTVVPASAGGSAGGSAGG [r11_147_JUSTAS]”: the “folding stability dG unfold” value in series [1] was determined as 0.0786 ± 0.069 kcal/mol; in series [2] it was 0.931 ± 0.11 kcal/mol; in series [3], 0.601 ± 0.13 kcal/mol.

On to “SAGGSAGGSAGTMTAEEIAKALGAKVVEVYPDKVVIEIEVDGKKYRITINEDGEVTVEEVSAGGSAGGSAGG [r17_252_TrROS_Hall]”, for which the entries for the “folding stability dG unfold” value in series [1], in series [2] and in series [3] were 2.62 ± 0.11 kcal/mol, 4.47 ± 0.15 kcal/mol and 4.02 ± 0.21 kcal/mol, respectively.

As for “SAGGSAGGSAGVEINIFMPSWEQAKHRAKSIARELRERGLPPNAEIKIKIHPIDPEDMGPSAGGSAGGSAGG [r17_180_TrROS]”, the “folding stability dG unfold” value in series [1] is -0.0827 ± 0.13 kcal/mol; in series [2] it was -0.576 ± 0.15 kcal/mol; in series [3] it was -0.226 ± 0.25 kcal/mol.

In the case of “SAGGSAGGSAGVKSVGPIIYPNGEVFGDVKAEEETLPNGKKKLKIYATFSDGSKYEFTLDSAGGSAGGSAGG [r11_810_TrMRF]”, the figures for the “folding stability dG unfold” value in series [1], in series [2] and in series [3] were -0.261 ± 0.34 kcal/mol, 0.728 ± 0.13 kcal/mol and 0.325 ± 0.26 kcal/mol, respectively.

Turning to “SAGGSAGGSAGVKVLKNPGDSLVTVVTETTVTKTTTDPEGNTTTTPVKVTTTTLLEVPLTSAGGSAGGSAGG [r17_103_JUSTAS]”, the entries for the “folding stability dG unfold” value in series [1], in series [2] and in series [3] were 0.205 ± 0.033 kcal/mol, 0.215 ± 0.056 kcal/mol and 0.279 ± 0.071 kcal/mol, respectively.

In the case of “SAGGSAGGSAGVPVVVRTVTGPEGGYVVVEFPNLKKVVLLPFTDGKPRPVVFDTDEVLKLVSAGGSAGGSAG [r3_426_TrMRF]”, the “folding stability dG unfold” value was 1.04 ± 0.04 kcal/mol in series [1], 0.722 ± 0.083 kcal/mol in series [2] and 0.825 ± 0.093 kcal/mol in series [3].

On to “SAGGSAGGSAGVRDPDNGEPMPPGDWVIRHRDNEKPHHFLIPPNNAEEFAEDNGIEIHKVSAGGSAGGSAGG [r17_109_TrROS]”, for which the “folding stability dG unfold” value in series [1] turned out to be 1.42 ± 0.23 kcal/mol; in series [2], 1.24 ± 0.14 kcal/mol; in series [3], 1.32 ± 0.35 kcal/mol.

As to “SAGGSAGGSAGVVLKEPKGGVPKTITEDPNHPGLYTTGSPDGTISTRPLEIKPEEEPVLLSAGGSAGGSAGG [r17_85_JUSTAS]”, the “folding stability dG unfold” value was -1.01 ± 0.49 kcal/mol in series [1], -0.542 ± 0.4 kcal/mol in series [2] and -0.739 ± 0.55 kcal/mol in series [3].

As for “SAGGSAGGSAGVVVKKPGTDVVYEITEEPGSYKVTITDPKTGTTKEFTVSPEVSIESLLLSAGGSAGGSAGG [r11_772_JUSTAS]”, the “folding stability dG unfold” value came to 1.22 ± 0.092 kcal/mol in series [1], 0.757 ± 0.13 kcal/mol in series [2] and 1.15 ± 0.14 kcal/mol in series [3].

As to “SAGGSAGGSAGWGWISVSITFEMEHYDEDGKPKHEHPMPMTIQIPVVRVDPKNGKLEPMPSAGGSAGGSAGG [r17_413_TrROS]”, the figures for the “folding stability dG unfold” value in series [1], in series [2] and in series [3] were 1.83 ± 0.095 kcal/mol, 2.58 ± 0.065 kcal/mol and 2.24 ± 0.2 kcal/mol, respectively.

Consider “SAGGSAGGSAGYTVSVSVETETLKYLDPETGELVEEETLVRVTITITPPPPAPPNLPENLSAGGSAGGSAGG [r17_493_TrROS_Hall]”, for which the “folding stability dG unfold” value is 2.37 ± 0.23 kcal/mol in series [1], 2.76 ± 0.051 kcal/mol in series [2] and 2.65 ± 0.23 kcal/mol in series [3].

For the sequence “SAGGSAGGSAIADEFAEKNPNFQVEVERHTFEMTQYDPDGGWRQHRMFMISITIVPPGDPLSAGGSAGGSAG [r3_358_TrROS]”, the “folding stability dG unfold” value turned out to be 2.91 ± 0.19 kcal/mol in series [1], 4.07 ± 0.2 kcal/mol in series [2] and 3.44 ± 0.3 kcal/mol in series [3].

Turning to “SAGGSAGGSAIKKTPNGKYLLKVTFTETYKDKKTGKTYKKTYTKTYVFDKKTNKWKSAEELSAGGSAGGSAG [r3_394_TrROS_Hall]”, the entries for the “folding stability dG unfold” value in series [1], in series [2] and in series [3] were 2.41 ± 0.17 kcal/mol, 3.12 ± 0.12 kcal/mol and 2.94 ± 0.33 kcal/mol, respectively.

As for “SAGGSAGGSAKEFVAKVITPDGKPFTIPFGGETEEEAIEKLKEAIKKAFPEYKGVKIELEEKSAGGSAGGSA [r18_434_TrMRF]”, the “folding stability dG unfold” value in series [1] worked out at 0.873 ± 0.057 kcal/mol; in series [2], 0.626 ± 0.27 kcal/mol; in series [3] it was 0.791 ± 0.2 kcal/mol.

On to “SAGGSAGGSAKEIEVRVEKDEETGKYRVTIRVDGKEIEIEVDVPKTLEEAERKAKELLKELSAGGSAGGSAG [r3_104_TrROS_Hall]”, for which the “folding stability dG unfold” value in series [1] is 2.53 ± 0.082 kcal/mol; in series [2], 2.77 ± 0.035 kcal/mol; in series [3], 2.66 ± 0.066 kcal/mol.

Take “SAGGSAGGSAKENEKISIGPEITETGLDILEIKVDTNTKVVTIRFANKIYRIDKNGNISIVSSAGGSAGGSA [r18_445_TrMRF]”: the “folding stability dG unfold” value in series [1] amounted to 1.73 ± 0.065 kcal/mol; in series [2] it was 2.51 ± 0.13 kcal/mol; in series [3], 2.18 ± 0.17 kcal/mol.

As to “SAGGSAGGSAKEYIVRIKVRLKDGEEVEIEITVSEEELEELKKALESLPNIEEAEIEVFPLPSAGGSAGGSA [r18_157_TrROS_Hall]”, the “folding stability dG unfold” value was determined as 3.82 ± 0.11 kcal/mol in series [1], 3.53 ± 0.043 kcal/mol in series [2] and 3.63 ± 0.066 kcal/mol in series [3].

As for “SAGGSAGGSAKHRVDDIQPQRHKNPDGEKPVRVRFPDNGQEERIPADNLDDIDVSDGMEVEPSAGGSAGGSA [r18_288_TrROS]”, the “folding stability dG unfold” value in series [1] is -1.8 ± 0.45 kcal/mol; in series [2] it was -0.631 ± 0.044 kcal/mol; in series [3], -0.855 ± 0.2 kcal/mol.

With “SAGGSAGGSAKIFARAPPGQWYRITVKYKGGNGDKKEHTATIPPNNPPPDIEDVEIEPIPPGSAGGSAGGSA [r18_223_TrROS]”, the “folding stability dG unfold” value in series [1] turned out to be 3.55 ± 0.14 kcal/mol; in series [2] it was 3.15 ± 0.066 kcal/mol; in series [3] it was 3.12 ± 0.25 kcal/mol.

As to “SAGGSAGGSAKIIVNEDGYLIKITNKNGKEITIEMSEDELKELLKKLGIKKAEIVPLPKEKSAGGSAGGSAG [r3_141_TrROS_Hall]”, the “folding stability dG unfold” value worked out at 0.382 ± 0.075 kcal/mol in series [1], 2.34 ± 0.093 kcal/mol in series [2] and 1.72 ± 0.2 kcal/mol in series [3].

Consider “SAGGSAGGSAKIMIPVDTPEEVKDIAEEFASNGNKEVEPHEDGWVSIEFPNGVPIEIWLPKDSAGGSAGGSA [r18_126_TrROS]”, for which the “folding stability dG unfold” value was -0.558 ± 0.28 kcal/mol in series [1], 0.488 ± 0.062 kcal/mol in series [2] and 0.0345 ± 0.25 kcal/mol in series [3].

As for “SAGGSAGGSAKKIKIKIKVYNPETKEVLELEIEVSEEEAEELAKKLAEELEKKGYKIEEVEISAGGSAGGSA [r18_3_TrROS_Hall]”, the figures for the “folding stability dG unfold” value in series [1], in series [2] and in series [3] were 4.48 ± 0.35 kcal/mol, 3.47 ± 0.084 kcal/mol and 3.85 ± 0.12 kcal/mol, respectively.

For the sequence “SAGGSAGGSAKKITVEITIEVNGKKYKVKAEIELDEETKTLTIKVTFPDGTEFEFTFKLPEESAGGSAGGSA [r18_239_TrROS_Hall]”, the “folding stability dG unfold” value is 3.86 ± 0.22 kcal/mol in series [1], 5.72 ± 0.13 kcal/mol in series [2] and 5.76 ± 0.41 kcal/mol in series [3].

With “SAGGSAGGSAKKIVIKVKPGMTEEEILEEIAKKLGLKPEKIKKIEIERNKDGYLYVTIEIESAGGSAGGSAG [r3_26_TrROS_Hall]”, the “folding stability dG unfold” value in series [1] stood at 3.66 ± 0.16 kcal/mol; in series [2], 3.87 ± 0.065 kcal/mol; in series [3], 3.82 ± 0.083 kcal/mol.

In the case of “SAGGSAGGSAKKKKKKKKYKPKPVKIFKIKLKLKLEKTKDGLKLKIEEIEIEEIATLEKGLSAGGSAGGSAG [r3_397_TrROS_Hall]”, the “folding stability dG unfold” value turned out to be 1.88 ± 0.12 kcal/mol in series [1], 2.72 ± 0.1 kcal/mol in series [2] and 2.43 ± 0.44 kcal/mol in series [3].

Consider “SAGGSAGGSAKKKKYKVKIKVINENGEIYEIDEIYFDEKTKKIYIKIKNKDGEEKVFEIELDSAGGSAGGSA [r18_370_TrROS_Hall]”, for which the results for the “folding stability dG unfold” value in series [1], in series [2] and in series [3] were 2.4 ± 0.059 kcal/mol, 3.74 ± 0.051 kcal/mol and 3.25 ± 0.13 kcal/mol, respectively.

For “SAGGSAGGSAKKPKKFKITKISTVKNKNGKTYYKLVIEDEKTKKKYVFVFPKNKEEILKALSAGGSAGGSAG [r3_57_TrROS_Hall]”, the “folding stability dG unfold” value in series [1] amounted to 2 ± 0.061 kcal/mol; in series [2], 2.53 ± 0.062 kcal/mol; in series [3], 2.45 ± 0.15 kcal/mol.

On to “SAGGSAGGSAKKPTAEEILKKLKLPEGAKIVKIEVEYDKKTKKVTIKIEIKVNGKTYTFEIKSAGGSAGGSA [r18_354_TrROS_Hall]”, for which the “folding stability dG unfold” value in series [1] turned out to be 2.81 ± 0.15 kcal/mol; in series [2], 4.39 ± 0.11 kcal/mol; in series [3], 3.94 ± 0.18 kcal/mol.

Consider “SAGGSAGGSAKKTLTVKPGQTVTVKNKKTGKTYTATVEKDKDGNLTVKLENGKTYTINLKDLSAGGSAGGSA [r18_169_TrROS_Hall]”, for which the “folding stability dG unfold” value in series [1] turned out to be 0.967 ± 0.083 kcal/mol; in series [2] it was 2.15 ± 0.078 kcal/mol; in series [3], 1.8 ± 0.093 kcal/mol.

In the case of “SAGGSAGGSAKKVVTVPEDATLEEIEELLKSGEKVTVVIHNKETGKTETLEFDSLEELKAASAGGSAGGSAG [r3_362_TrROS_Hall]”, the results for the “folding stability dG unfold” value in series [1], in series [2] and in series [3] were 0.601 ± 0.072 kcal/mol, 1.91 ± 0.16 kcal/mol and 1.53 ± 0.17 kcal/mol, respectively.

For the sequence “SAGGSAGGSAKKYVLLVTYRHPENGETRTVLVEVETEEEVERAVKELAPPEFDEVKVYVLPASAGGSAGGSA [r18_258_TrMRF]”, the “folding stability dG unfold” value in series [1] stood at 2.83 ± 0.15 kcal/mol; in series [2], 2.79 ± 0.046 kcal/mol; in series [3] it was 2.83 ± 0.12 kcal/mol.

Regarding “SAGGSAGGSAKMIFVKNEDGTITMFTLNEDGYLTVTTVTLDKKTKKMTVETKTIKLTDPELLSAGGSAGGSA [r18_503_TrROS_Hall]”, the “folding stability dG unfold” value is 1.16 ± 0.027 kcal/mol in series [1], 2.46 ± 0.081 kcal/mol in series [2] and 2.14 ± 0.17 kcal/mol in series [3].

Take “SAGGSAGGSAKMIIRIRNKNGKIIELTLEEVAKKLGLSKEEMTAEEILKKLKENIEKVEILPSAGGSAGGSA [r18_403_TrROS_Hall]”: the “folding stability dG unfold” value turned out to be 2.9 ± 0.047 kcal/mol in series [1], 3.18 ± 0.048 kcal/mol in series [2] and 3.1 ± 0.07 kcal/mol in series [3].
